Laboratory results: a protein production outcome set (Wang et al. 2014)

Assay: label from the status in PepcDB records
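Note: failed if final PepcDB status was selected cloned or expressed and not failed if soluble or beyond.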

| Sequence | protein production |
| --- | --- |
| MYDNENPNGFGSNPEENNDDNISGTENNNFEEVNSQQVSQDAVNSSEQNTEQTAEQESSVYRQSYVNDEHHNADDVSGNGTYYSQGSNNSSNDSTQNGSYYNNTQDGSYYNSNSNNSQNNGYYYSTNDSQTNNGYNYNSNNNNNGNGKKKKKKRTLIAVVAVCVVLLAGTIGISAAYFSKNKDSLTNVLEDGTLSNNNNNSNSNNDNSSDSGNYESIGSTNTQNDANSSSTSGVTVTDVSSVVSSAMPSVVAITSKTLVESRNDYSQDIWEYYFGGGNSGNNKSNSYEEDAAGSGIIVDQTSTELLIVTNNHVVEGADSLKIQFAGTESKDSVDGYIKGTDSTKDVAVVAVKLKDIPSDVLKNIKKATLGDSDKVNVGEGVIAIGNALGYGQSVTTGIISAKDRKVQLENQTMTLLQTDAAINGGNSGGALLNASGEVIGINVAKYSSSGSSSNASVEGMGFAIPISSVKDIISDLETKETRTKVSEDERGYLGISGFDVDEQTSQAYSIPQGIQVQSVVKGGPAENAGIAASDVITKFDGQDVSSMASLQSMLEYYKKGEQVKVTIEYRDGREYKTKDVTVTLGDKSVIETTQNAAN | failed |
| MYDYSILPNRIILCVDLRSFYASVSCIKMGLDPMHTKLAVVGDVNRNGSIVLAATPPLKALGVKKMARLYEIPRRKDILVVNPIMSTYIKCSNYITKLALQYVPIEDFHQYSIDEFFMDITDSIHLFAQDPYEFAMKFKREIYDHTRIECTIGIAPNPLMSKVALDIEAKKNKDGIAFWQYEDIPTKLWSIRPLNKFWGISYKTEEKLNRKGIYSIGDLANYPLKYLKQSFGKIGEELHLHSHGIDFSRISEKYVPATTSIGKSQILMRDYTIEEFPIILLEHIEEVCYRLRRQTKLAQTIHFSVGYSKSYTGGIRKTHTLNRPTNLTMDIYHICTYFLHQQYTGEPIRSINISLTNLIQEGEEQISLFDNVTKREQEMKLTKVMDEIRTKFGKNSILRGISYTHSATARHRNTLIGGHKS | failed |
| MYELERTVFQELFRRVLDNQYQVTPEERKALVQCDNSIVRRGIFSALTSFSLIYYGLKQFQKHFNASSSLRLRPAIPATLLGLTTGFFYGRTAAPGCLQNLMNVPNSAVAEEVKIIIRELYEQSPSSTTGQTIATRYGFLLDSTTVPMKISDVGFGDNENSDWKEVDTWQSDNSIYQGTVQKRVGPRNSDKRRVIRPNDKVENHIHQDALANSTSSLPSNETDYGFASLPGYSSSQSDSDVLESWDIGNDNQQENTNNEPNVKKESHRRRRRNEFRKSNGQVKSLESDPTEQGTIQTDTKDLLSSRQDTDALWDSSFSGKGSSATAF | failed |
| MYETFMKRAIELAKKGLGRVNPNPPVGAVVVKDGRIIAEGFHPYFGGPHAERMAIESARKKGEDLRGATLIVTLEPCDHHGKTPPCTDLIIESGIKTVVIGTRDPNPVSGNGVEKFRNHGIEVIEGVLEEEVKKLCEFFITYVTKKRPFVALKYASTLDGKIADHRGDSKWITDKLRFKVHEMRNIYSAVLVGAGTVLKDNPQLTCRLKEGRNPVRVILDRKGVLSGKVFRVFEENARVIVFTESEEAEYPPHVEKALSDCSVESILRNLYERDIDSVLVEGGSKVFSEFLDHADVVFGFYSTKIFGKGLDVFSGYLSDVSVPPKFKVVNVEFSDSEFLVEMRPCSRE | not failed |
| MYILIGGMGSMGSNLAKNLLKMGHTVAAVDTDPLACQYAREKIGVMAFEGSAVNTSVLLEAGVRKAGAVIAALQEDALNLALVTLSKHYGVPQIVVRMSDGDFAEPYRLAGATHIISTTELALNRVINAIEYPQVDAMMHFEQGQIEVLKLSIPPNCTIVGRSVAAIAQDPRFPSGTLIIGYQANAHEDLKIPNGNTLLEDGSTILAVTKPELVRQLIDFMGLCQS | failed |
| MYIPNAFRESDTHNLQEHMDKTRLAILVTQGDDGLHATHLPLLLRSDEGPYGTLYGHMAKANPQWQQLNADAEAMVIFPGEDAYVSPSFYPSKAEHGKVVPTWNYLAVHAYGQAECFTDPDRLHQLLNDLTDRHESSRAQPWSINDAPADYIAKMLGAIVGFSIPVQRL | failed |
| MYKRRVDPELEDLTSRAREALALFISISLRDNTELNLVVPNGPSWLSHVDKKDLYLNDETLKKITDILVAKDVTGNYNIVNVAIAAAPQHSQKRFVIYIKTSIYVEIVVIGNMKSNLTLIADGQDSTIITFNLSSSNSKRTFNTATFASNGDGFIRVDMCFRNTTWPVKGPVVTLRVNGDMSIIYRCRVEEYQDALYPHKNRQCYREYFLMDTVDFICGNAAAVFQFCQIVHMDG | not failed |
| MYLEKLQQWRYATADFSGAHITDDVLDKLLNTTRLTASSYGLQPYCTLVIRNKGLREQLVNHSFGQQKVADSSALVIFAAKTGAVADIVDPYISELSQQRQLTNEEAENTRNYFTQKLQAMSAATRKEWAVRQAYIGLGTFLLAAAELEVDSCPMEGIEHDAYDNILSLKDLGLSTVFACPVGYRSEADTTQFQKKVRQPLSRFKVVL | not failed |
